In paper PMC5278347, “Identification and Characterization of a Plastidic Adenine Nucleotide Uniporter (OsBT1-3) Required for Chloroplast Development in the Early Leaf Stage of Rice” (Scientific Reports, 2017):
One block for each molecule: values may come before it.

Experiments:
OsBT1-3 = target: T1, OsBT1-3 (Oryza sativa, UniProt A0A0P0WYD6); experiment: inhibition of [α^32P]-ATP uptake into E. coli cells; assay type: cell-based; conditions: 2000 µM; 2 mM PLP; lysozyme-treated cells; ATP printed as 50 mM (probably μM)
T1 construct: gene Os06g0602700; E. coli Rosetta(DE3)pLysS, intact cells; antibody peptide VPGTEAESVNEEEVVDGK
T1 sequence (A0A0P0WYD6 1-423): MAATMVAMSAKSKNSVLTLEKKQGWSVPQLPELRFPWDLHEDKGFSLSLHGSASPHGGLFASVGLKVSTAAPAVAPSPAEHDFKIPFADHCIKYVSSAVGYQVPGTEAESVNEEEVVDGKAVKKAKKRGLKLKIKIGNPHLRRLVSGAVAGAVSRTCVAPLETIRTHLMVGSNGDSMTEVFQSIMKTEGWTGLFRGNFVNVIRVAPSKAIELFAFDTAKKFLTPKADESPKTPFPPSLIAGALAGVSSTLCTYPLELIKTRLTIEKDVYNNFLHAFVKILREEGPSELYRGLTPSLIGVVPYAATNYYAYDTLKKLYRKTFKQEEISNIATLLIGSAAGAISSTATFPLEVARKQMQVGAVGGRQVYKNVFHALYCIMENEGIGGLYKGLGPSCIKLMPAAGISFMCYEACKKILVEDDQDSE

[1] = substrate: Nc1ncnc2c1ncn2[C@@H]1O[C@H](COP(=O)(O)O)[C@@H](O)[C@H]1O; experiment: cells, lysate or membranes; assay type: cell-based, Oryza sativa; conditions: labelled compound ([^14C]-AMP); 0 to 900 μM; IPTG-induced cells, non-induced background subtracted
[2] = substrate: Nc1ncnc2c1ncn2[C@@H]1O[C@H](COP(=O)(O)OP(=O)(O)O)[C@@H](O)[C@H]1O; experiment: cells, lysate or membranes; assay type: cell-based, Oryza sativa; conditions: labelled compound ([α^32P]-ADP); 0 to 900 μM; IPTG-induced cells, non-induced background subtracted
[3] = substrate: Nc1ncnc2c1ncn2[C@@H]1O[C@H](COP(=O)(O)OP(=O)(O)OP(=O)(O)O)[C@@H](O)[C@H]1O; experiment: cells, lysate or membranes; assay type: cell-based, Oryza sativa; conditions: labelled compound ([α^32P]-ATP); 0 to 900 μM; IPTG-induced cells, non-induced background subtracted

Transport Rate (%) (OsBT1-3): 27.4 ± 1.9%
Molecule: Cc1ncc(COP(=O)(O)O)c(C=O)c1O [PLP]

B1: OsBT1-3 (Oryza sativa Japonica Group) (protein)
chain: T1 sequence (A0A0P0WYD6 1-423)
notes: E. coli Rosetta(DE3)pLysS, intact cells; antibody peptide VPGTEAESVNEEEVVDGK
Km [1]: 106.1 ± 3.45 µM
Km [2]: 101.7 ± 7.62 µM
Km [3]: 83.5 ± 2.74 µM
